According to paper PMC8502904, “Glyceraldehyde-3-phosphate dehydrogenase present in extracellular vesicles from Leishmania major suppresses host TNF-alpha expression”:

Assays:
[1] = molecular target: T1, LmGAPDH (glyceraldehyde-3-phosphate dehydrogenase) (Leishmania major (strain 5ASKH), UniProt Q4Q6Z5 1-361); assay: EMSA; concentration dependent; supershift with anti-LmGAPDH; conditions: protein: recombinant; tags: His tag (pET15B NdeI/BamHI, Ni-NTA); chain copies: 4; label: 3' biotin; single strand
[2] = molecular target: T1, LmGAPDH (glyceraldehyde-3-phosphate …); assay: EMSA; no complex also at higher LmGAPDH concentrations; conditions: protein: recombinant; tags: His tag (pET15B NdeI/BamHI, Ni-NTA); chain copies: 4; label: 3' biotin; single strand
[3] = molecular target: T1, LmGAPDH (glyceraldehyde-3-phosphate …); assay: competition; about 200-fold excess unlabeled RNA competes with labeled N1; conditions: protein: recombinant; tags: His tag (pET15B NdeI/BamHI, Ni-NTA); chain copies: 4; label: none; single strand

B1: TNF-alpha 3'-UTR ARE38 (ssRNA)
RNA: GUGAUUAUUUAUUAUUUAUUUAUUAUUUAUUUAUUUAG
B1: binds [1].

B2: TNF-alpha 5'-UTR oligonucleotide (ssRNA)
RNA: AGAACAUCUUGGAAAUAGCUCCCAGAAAAGCAAGCAGC
B2: no binding [2].

B3: TNF-alpha 3'-UTR ARE38, unlabeled competitor (ssRNA)
RNA: B1 RNA
B3: binds [3].
